According to paper PMC8238635:

Assays:
[1] = target: T1, Nsp8 (SARS-CoV-2 (taxid 2697049), UniProt P0DTD1 3943-4140); test: EMSA; split bands; conditions: protein: recombinant, tags: N-terminal His6-TEV, cleaved, single strand
[2] = target: T1, Nsp8; test: SEC-MALS-SAXS; 1:1 complex, high affinity; conditions: protein: recombinant; tags: N-terminal His6-TEV, cleaved; label: 32P in EMSA; none in SEC; single strand
[3] = target: Nsp8;Nsp12 (RdRp) (SARS-CoV-2 (taxid 2697049);SARS-CoV-2 …, UniProt P0DTD1;P0DTD1 3943-4140;4393-5324, |); test: SEC-MALS-SAXS; excess RNA; low or nonexistent binding; conditions: protein: recombinant;recombinant, tags: N-terminal His6-TEV, cleaved;N-terminal His6-TEV, copies: 1;1
[4] = target: T1, Nsp8; test: SEC-MALS-SAXS; conditions: protein: recombinant; tags: N-terminal His6-TEV, cleaved

B1: short ssRNA (28 bases) (ssRNA)
RNA: CAUGCUACGCGUAGCAUGCUACGCGUAG
binding result ([1]; label: 32P in EMSA, none in SEC): binds

B2: long ssRNA without poly-U 5' end (ssRNA)
RNA: CAUGCUACGCGUAGCAUGCUACGCGUAGCAUG
binding result ([1]; label: 32P): binds

B3: long ssRNA (36 bases) (ssRNA)
RNA: UUUUCAUGCUACGCGUAGCAUGCUACGCGUAGCAUG
binding result [2]: binds

B4: dsRNA (long ssRNA paired to short ssRNA) (dsRNA)
RNA 1: UUUUCAUGCUACGCGUAGCAUGCUACGCGUAGCAUG
RNA 2: CAUGCUACGCGUAGCAUGCUACGCGUAG
binding result [3]: no binding | binding result [4]: binds
